The labels stand for the following.
B1: Alpha-lactalbumin, P00711 (parent)
chain: MMSFVSLLLVGILFHATQAEQLTKCEVFRELKDLKGYGGVSLPEWVCTTFHTSGYDTQAIVQNNDSTEYGLFQINNKIWCKDDQNPHSSNICNISCDKFLDDDLTDDIMCVKKILDKVGINYWLAHKALCSEKLDQWLCEKL

In the data set the parent is B1. Particulars: Bos taurus; pH 7.4; Thermal; CD; Tris-HCl 20 mM; CaCl2 1 mM; reversible: yes(>95%); structure 1HFZ; whole UniProt chain shown.

Take MMSFVSLLLVGILFHATQAEQLTKCEVFRELKDLKGYGGVSLPEWVCTTFHTSGYDTQAIVQNNDSTEYGLFQINNKIWCKDDQNPHSSNICNISCDKFLDDDLTDDIMCVKKILDKVGINYWLAHKALCSENLDQWLCEKL [K133N]: the “change of melting temperature, mutant - wild type (higher = more stable)” value came out at 10.7 °C; the “ddG of mutation (higher = less stable)” value is -2.65 kcal/mol; the “unfolding enthalpy (van 't Hoff)” value came to 91.3 kcal/mol.
The matching figures for MMSFVSLLLVGILFHATQAEQLTKCEVFRELKDLKGYGGVSLPEWVCTTFHTSGYDTQAIVQNNDSTEYGLFQINNKIWCKDDQNPHSSNICNISCDKFLDDDLTDDIMCVKKILDKVGINYWLAHKAHCSEKLDQWLCEKL [L129H]: 6.3 °C, -1.39 kcal/mol and 77.4 kcal/mol.
The matching figures for MMSFVSLLLVGILFHATQAEQLTKCEVFRELKDLKGYGGVSLPEWVCTTFHTSGYDTQAIVQNNDSTEYGLFQINNKIWCKDDQNPHSSNICNISCDKFLDDDLTDDIMCVKKILDKVGINYWLAWKALCSEKLDQWLCEKL [H126W]: -8.7 °C, 1.72 kcal/mol and 57.8 kcal/mol.
In the same order, the values of MMSFVSLLLVGILFHATQAEQLTKCEVFRELKDLKGYGGVSLPEWVCTTFHTSGYDTQAIVQNNDSTEYGLFQINNKIWCKDDQNPHSSNICNISCDKFLDDDLTDDIMCVKKILDKVGINYWLAHKALCSEKLDQYLCEKL [W137Y] are -5.4 °C, 1.17 kcal/mol and 67.2 kcal/mol.
Regarding MMSFVSLLLVGILFHATQAEQLTKCEVFRELKDLKGYGGVSLPEWVCTTFHTSGYDTQAIVQNNDSTEYGLFQINNKIWCKDDQNPHSSNICNISCDKFLDDDLTDDIMCVKKILDKVGINYWLSHKALCSEKLDQWLCEKL [A125S], the “change of melting temperature, mutant - wild type (higher = more stable)” value was -6.1 °C; the “ddG of mutation (higher = less stable)” value is 1.05 kcal/mol; the “unfolding enthalpy (van 't Hoff)” value was found to be 51.6 kcal/mol.

Values taken from FireProtDB (doi:10.1093/protein/12.7.581).
